Source: publication PMC11987610, “Pseudomonas aeruginosa PfpI is a methylglyoxalase” (The Journal of Biological Chemistry, 2025)
Each block holds one molecule with its values, some of them ahead of it.

What was measured:
[1] = biological target: Pseudomonas aeruginosa PfpI (PA0355), recombinant, N-terminal His6 tag (P. aeruginosa PAO1); experiment: AUC; sedimentation velocity; 25 mM Tris-HCl (pH 8.0), 100 mM NaCl; 0.5, 1.0 and 2.0 mg/ml PfpI; 20 C, 24 h
YhbO = biological target: T1, YhbO (Escherichia coli, UniProt P45470); experiment: 1D 1H NMR of end products; type: biochemical; conditions: 1 mM MGO, 20 μg enzyme, 50 mM PBS with 5% DMSO-d6, overnight, 4 °C
T1 construct: full-length ORF with N-terminal His6 tag (pET-19m), E. coli Rosetta (DE3); tagged mass 20,858 Da
T1 sequence (P45470 1-172): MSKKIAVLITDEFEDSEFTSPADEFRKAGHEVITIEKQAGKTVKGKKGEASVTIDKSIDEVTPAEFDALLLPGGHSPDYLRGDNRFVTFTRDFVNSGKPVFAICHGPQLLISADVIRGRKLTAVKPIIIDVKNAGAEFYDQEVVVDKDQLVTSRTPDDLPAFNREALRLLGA

[2] = substrate: CC(=O)C=O; experiment: colorimetric lactate assay after heat quench, Michaelis-Menten fit; type: biochemical, Pseudomonas aeruginosa; conditions: PBS, 37 °C, 0.2 μM enzyme, glutathione-independent

stoichiometry N [1]: 2
Molecule: Pseudomonas aeruginosa PfpI (PA0355), recombinant, N-terminal His6 tag (enzyme)

Molecule: CC(=O)C=O [methylglyoxal]
1D 1H NMR of end products (YhbO): both enzymes quantitatively convert MGO to lactate

B1: PfpI (Pseudomonas aeruginosa PAO1) (protein)
chain: MTQSLHGKVVAALVTDGFEQVELTGPKKALEDAGATVRILSDKAGEVRGWNHHQPAEAFRVDGTFEDASLDDYDALLLPGGVINSDQIRSLAKAQELAIRAEQASKPVAVICHGAWLLISAGLVQGRTLTSWPSLKDDINNAGGHWVDQEVAVDGKLVSSRKPEDIPAFNRRFIEILAG
notes: full-length ORF (540 bp) with N-terminal His6 tag (pET-19m), E. coli Rosetta (DE3); tagged mass 21,246 Da
Km [2]: 369 ± 139 µM
kcat [2]: 1.72 ± 0.367 s⁻¹
